This note sets out measurements from publication PMC6988089.

Assay [1] has as its target TAMRA-labeled benzylated H3K9 peptide. Kind of assay: fluorescence polarisation. (Fluorescence polarisation rises when a labelled molecule tumbles more slowly, as on binding a larger partner.)
Assay [2] addresses TAMRA-labeled H3K9me3 peptide. Put plainly: fluorescence polarisation.

On to “CBX1 chromodomain F50A (from UniProt P83916 20-73) (domain or fragment)”, for which the Kd (usually the equilibrium constant for the complex coming apart) in assay [1] came to 18.5 µM. This lies in the double-digit micromolar range.
As to “CBX3-F44G mutant (from UniProt Q13185 1-183) (natural protein)”, the Kd in assay [2] was over 1000 µM; in assay [1], 49 µM.
“Y26F/F50G-CBX1 chromodomain (from UniProt P83916 22-73) (domain or fragment)”: the Kd was over 300 µM with H3K9me2 peptide, 80 µM in assay [2] and 5.5 µM in assay [1].
In turn, “wild-type CBX3 (from UniProt Q13185 1-183) (natural protein)” came in with a Kd in assay [1] of over 1000 µM.
